# Test results reported in the supplement of paper PMC9170038.
# Test system: MS2 coat protein
# Assay: apparent KD of MS2 coat protein; higher = weaker reporter binding
# Settings: Eterna round: R107; input ligand: arginine 13.2 mM
# Method: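 RNA-MaP round R107: designed RNA switches with theophylline, tryptophan, arginine or FMN aptamers are transcribed on-chip within common flanks. They are titrated with SNAP-549-labelled MS2 coat protein in RNA-MaP buffer (100 mM Tris pH 7.5, 80 mM KCl, 4 mM MgCl2), without ligand or with the indicated ligand. Median apparent KD per design.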
row,Sequence,apparent KD of MS2 coat protein
1,AAACUGGGUGUAAAAUAAAUAAUCACUGAUACCAGACUAUAGUAUGUCCCUUGGCAGCAGAAACAUGAGGAUCACCCAUGUAAUA [JR_Nu_ExcTheophyA_Sub024],22.3 nM

# Same assay, conditions: Eterna round: R107; input ligand: none
row,Sequence,apparent KD of MS2 coat protein
1,AUCGGGCCUUUAGAACCGCCGUUCCCACCUCGAGGACCGGUACGGCCGCCACUCGGGUGACAUGAGGAUCACCCAUGUGGACGAA [Gexebidive],181 nM
2,UGUAUGUGAUCUGAUACCAGUCCAACUGGUAAAACCUGAGGAUCACCCAGGUAAAAUUGGGACCCUUGGCAGCAGAUCGCAUACU,183 nM
3,CCUCAUGUGACGGCCGCCACUGAAGUGAUCGAAACAUGAGGAUCACCCAUGUUACGAUCAGAGAACAGGACCGGGUCAACAUGGG [Try B SS s1],9.32 nM
4,UGGUACAUGGCGGCCGCCACUGGGUUGAAUACCUGAGGAUCACCCUGGUAAAACGCGAAAGCGACUAGGACCGGGUCAUGUACCU,148 nM
5,ACAUGAGGAUCACCCAUGUAAGUUUCAGAAGGAGCGUGAAUUAUCACAGGUAGGUCGCUGAAGUUUGCAUAUACUUAUAAAUGUA [JR_ExcArginiA_Sub006],22.5 nM
6,ACAUGGGUCUGAAGGAGCGCGAUAACAUGAGGAUCACCCAUGUAAAGUGGAACAUGAUAAUCGCAGGUAGGUCGCAGUAAAACCC [#26 Same State - Arginine B],412 nM
7,CUGCCAUGCAGAGAUACCAGUGAGCCCAUAACAUGAGGAUCACCCAUGUACGCCGCAGACCACCCUUGGCAGCUCUGCAUGGCAG [&#$*@],17.4 nM
8,GCAUGUUGGUGGUAUCUGCGAAGGCGGAAUCGAGGACCGGUACGGCCGCCACUCGGCGACAUGAGGAUCACCCAUGUGGUUAGGA [Exclusion - Tryptophan A (Freestyle 8)],238 nM
9,CGCACAUGAGGAUCACCCAUGUGAGGGCGACGAGGACCGGUACGGCCGCCACUCGCAAAACAUGAGGAUCACCCAUGUGCCGCCG [SSTA DOUBLE!!! :-D #3],19.3 nM
10,AUGCGGUGCGGAAGGAGCGAGUUUGCCUAUUUACAUGAGGAUCACCCAUGUCCUAAUGGGACUCAGGUAGGUCGCCGUUGUUGCA [Same State Arginine B GF30],45 nM
11,AGCCGCGUUCUUUCUUUCUUUCUAGCGGCACGAGGACCGGUACGGCCGCCACUCGAAGACAUGAGGAUCACCCAUGUAGUGGGUA [The Second Ring],123 nM
12,ACAUGAGGAUCACCCAUGUACAUGAGGGAAGGAGCGGUACAUGUGCCAGGUAGGUCGCCCAAGAGCAUCAGCCAUGUACAUCAGC [qasmullin],131 nM
13,AUACAUGAGGAUCACCCAUGUAUAGAUGAAGGAGCGACCAGAGGGUCAGGUAGGUCGCAUCACAUGAGGAUCACCCAUGUAUCGA [DOUBLE!!! :-D #8],56.8 nM
14,ACAUGAGGAUCACCCAUGUUCCUCAUUGAUACCAGUGAAAGAAGACGCCCUUGGCAGCGAGAAGAAGAAGAAGAAGAAGAAGAGG [6.A],725 nM
15,UGUAUGUGAUUUGAUACCAGACCAGCUGGUGGUACUUGAGGAUCACCCAAGUAGGUUUGGGUCCCUUGGCAGCAAAUCGCAUACU [SS Theo B #24 Ms10],163 nM
16,ACAUGAGGAUCACCCAUGUUAAGCACAGAAGGAGCGUGAAGAAACACAGGUAGGUCGCUGUACUUAUCGAGCGUUAGCUCGAUAC [JR_Nu_SSArginiA_Sub029],23.1 nM
17,ACUAGUUGUGCAGAUACCAGGCAUGAGGAUCACCCAUGUUUGGGAUGUUCGCAUCUUCCUGUCCCUUGGCAGCUGUACAUCUAGA [Omei Theo B Exc v6],48.5 nM
18,GGGCGCUAUCCCGCGAGGGAUAGCGUUCAACGAGGACCGGUACGGCCGCCACUCGAACGAGUGGGUACAUGAGGAUCACCCAUGU [Haa],28.5 nM
19,GGACUAACCAGAAGGAGCGGCGCGCAGAAACUGCAAUUUCCUCCACACGAGGAUCACCCGUGUCAGGUAGGUCGCUGGUUAGUCG [ArgBX 29],11.4 nM

# Same assay, conditions: Eterna round: R107; input ligand: theophylline 20 uM
row,Sequence,apparent KD of MS2 coat protein
1,ACGUUUUAGUCGGCCGCCACUGAUCUCAUGUUCAACAUGAGGAUCACCCAUGUACCUUUUUUUAUCAGGACCGGGACGUAAUAGA [JR_SSTryptoB_Sub005],328 nM
2,GAUCGAAAUAACGCAUAGGAAAACUAUGCGCGAGGACCGGUACGGCCGCCACUCGUCCUCACAUGAGGAUCACCCAUGUACGAUC [#SwitchBubble #CuTurnoff],29.1 nM
3,AGACAUGAGGAUCACCCAUGUAGCACGGAUACCAGAUCCAGAUGUAUCCCUUGGCAGCUGUGGUACAGCGUUGCAACGCUCCUAG [Exclusion - Theophylline A (Freestyle 17)],28.5 nM
4,AGCGACAUGCGUGAUACCAGCUACAUGAGGAUCACCCAUGUAAGUAGGAAACUACUGUGUAGCCCUUGGCAGCAUAGUGCAUGUC [Exclusion - Theophylline B (Freestyle 22)],23.5 nM
5,ACAUGAGGAUCACCCAUGUCACGGCACGAUACCAGCUGAUCCGGUGGCCCUUGGCAGCGUCACGUUUGGUCCCGCGGAUGACACG [klmmullin],89.6 nM
6,AUCGGGCCUUUAGAACCGCCGUUCCCACCUCGAGGACCGGUACGGCCGCCACUCGGGUGACAUGAGGAUCACCCAUGUGGACGAA [Gexebidive],432 nM
7,UGUAUGUGAUCUGAUACCAGUCCAACUGGUAAAACCUGAGGAUCACCCAGGUAAAAUUGGGACCCUUGGCAGCAGAUCGCAUACU,130 nM
8,CCUCAUGUGACGGCCGCCACUGAAGUGAUCGAAACAUGAGGAUCACCCAUGUUACGAUCAGAGAACAGGACCGGGUCAACAUGGG [Try B SS s1],13.6 nM
9,UGGUACAUGGCGGCCGCCACUGGGUUGAAUACCUGAGGAUCACCCUGGUAAAACGCGAAAGCGACUAGGACCGGGUCAUGUACCU,162 nM
10,ACAUGAGGAUCACCCAUGUAAGUUUCAGAAGGAGCGUGAAUUAUCACAGGUAGGUCGCUGAAGUUUGCAUAUACUUAUAAAUGUA [JR_ExcArginiA_Sub006],26.6 nM
11,ACAUGGGUCUGAAGGAGCGCGAUAACAUGAGGAUCACCCAUGUAAAGUGGAACAUGAUAAUCGCAGGUAGGUCGCAGUAAAACCC [#26 Same State - Arginine B],293 nM
12,CUACAUUUGUAGAAACCGGUCAACAAUAAUCGAGGACCGGUACGGCCGCCACUCGAUGUGAAAUCACAUGAGGAUCACCCAUGUA [Tryptophan A 18],23.8 nM
13,GGAAAAGAAAGAAAAGAAAUCCCUCCCUCCCGAGGACCGGUACGGCCGCCACUCGCCCUCCCUCCCACAUGAGGAUCACCCAUGU [Exclusion - Trytophan A],31.3 nM
14,GCUGUAAGUGCAGAUACCAGCAAGUGAUAUUUCAUAUGACAUGAGGAUCACCCAUGUAACUGCCCUUGGCAGCUGCACUUACAGC [SSTHB #10],122 nM
15,CACAGUGCGAAAUUGAAACCGCACGAUCCUCGAGGACCGGUACGGCCGCCACUCGCGCGGGUCGUACAUGAGGAUCACCCAUGUC [Zaarmaqu],351 nM
16,CUGCCAUGCAGAGAUACCAGUGAGCCCAUAACAUGAGGAUCACCCAUGUACGCCGCAGACCACCCUUGGCAGCUCUGCAUGGCAG [&#$*@],18.4 nM
17,GCAUGUUGGUGGUAUCUGCGAAGGCGGAAUCGAGGACCGGUACGGCCGCCACUCGGCGACAUGAGGAUCACCCAUGUGGUUAGGA [Exclusion - Tryptophan A (Freestyle 8)],170 nM
18,CGCACAUGAGGAUCACCCAUGUGAGGGCGACGAGGACCGGUACGGCCGCCACUCGCAAAACAUGAGGAUCACCCAUGUGCCGCCG [SSTA DOUBLE!!! :-D #3],42.7 nM
19,GGCCAUGGAAACAUGGCGGCGGCAUAAGCGCGAGGACCGGUACGGCCGCCACUCGGGCGACAUGAGGAUCACCCAUGUUCCUCAU [ETA NP+V+V2 #23 Same Structure],413 nM
